± gives the uncertainty stated by the source.

The data set is described as follows: amyloid nucleation score (Sup35N fusion, yeast selection) (log enrichment); library NNK2; higher = more nucleation; inactive = no reads after selection. The gist of the method: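 Yeast lacking psi expressed peptides of 20 random codons fused to Sup35N, received 100 μM copper sulfate for 24 hours, and were then grown for 7 days at 30°C on medium lacking adenine and uracil. Illumina sequencing of input and output plasmid inserts provided the reads. Nucleation scores are DiMSum log enrichments of output over input, centred on the mode of non-aggregating sequences. Any sequence with under 100 input reads was excluded.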
The substance MITVFGLVTFVVIVSTESPI returned an amyloid nucleation score of 3.8 ± 0.075.

As to MIVLKRSPSLCSIS, the amyloid nucleation score is -0.007 ± 0.34.

MIWTKRLDDHELCLGSRSML: the amyloid nucleation score was -0.739 ± 0.79.

Turning to MKGAKGDNFCIMV, the amyloid nucleation score entry was “inactive”.

Consider MKLFISNHTLWSIGKGDGVT, for which the amyloid nucleation score result is “inactive”.

In turn, MKLNVWGFFDGKQRLMESAA registered an amyloid nucleation score of -1.2 ± 1.1.

In turn, MKMEY yielded an amyloid nucleation score of 0.31 ± 0.42.

For MKNFNVYSTYWLCMGEYGCL, the amyloid nucleation score was determined as 6.34 ± 0.078.

For the substance MKPSGFRGILGTELRMKGWT, the amyloid nucleation score was determined as 0.74 ± 0.57.

With MKVVNCGCKHIFLRHCYALR, the amyloid nucleation score was -0.605 ± 0.45.

MLAWWPFRKWRVLIRGSRGF registered an amyloid nucleation score of 1.5 ± 0.35.

The substance MLCKRPWVTLFRLSKCFTSD showed an amyloid nucleation score of 0.33 ± 0.56.

As for MLCVIHE, the amyloid nucleation score worked out at 0.675 ± 0.25.

Turning to MLDMVIYCISLYCSYTLRMR, the amyloid nucleation score is 1.42 ± 0.58.

Substance MLESWFMY had an amyloid nucleation score of -0.154 ± 0.49.

Substance MLFAVDLVYGPDPLVNELTW came in with an amyloid nucleation score of 1.03 ± 0.4.

MLIQVCALEGRYEVTQCVGG had an amyloid nucleation score of 1.82 ± 0.12.

Substance MLLLGTTSQDHHMTLGKYAG had an amyloid nucleation score of 0.808 ± 0.74.

Consider MLLLVNSRLWLASIPIKYRA, for which the amyloid nucleation score was -0.332 ± 0.44.

MLNSMVGQNFVGYNHALFFH displayed an amyloid nucleation score of 4.16 ± 0.089.

MLNYAYSL registered an amyloid nucleation score of 1.42 ± 0.32.

MLQPPPNESVSIILLKGSPA showed an amyloid nucleation score of 5.165 ± 0.042.

MLRQYCASFALVRCLNVTDR: the amyloid nucleation score was determined as 3.12 ± 0.13.

The substance MLTFSTNDFVRFVMHVAQWD came in with an amyloid nucleation score of 2.1 ± 0.22.

Substance MLTTMCDELQLLVGPLGDRV came in with an amyloid nucleation score of 0.253 ± 0.3.

As to MLYVAVTS, the amyloid nucleation score is 0.459 ± 0.25.

In the case of MMARFCVAFQHVIESNLGGS, the amyloid nucleation score is -1.4 ± 0.44.

Substance MMDFYRLDLDRTVVVRNRYL returned an amyloid nucleation score of 0.389 ± 0.74.

Take MMHELHPRIELCG: the amyloid nucleation score turned out to be 6.12 ± 0.062.

As for MMSGCGFSLKACLKEWRGGL, the amyloid nucleation score is 7.572 ± 0.036.

As for MMSLPTLQSW, the amyloid nucleation score result was “inactive”.

Substance MNIDLHTHPSRSKMLCTTAN registered an amyloid nucleation score of 0.914 ± 0.55.

On to MNKCIWGIYYR, for which the amyloid nucleation score was -1.6 ± 1.1.

The substance MNMRAGTEL registered an amyloid nucleation score of 0.479 ± 0.54.

As for MNSFQTRGSVPRRNPKIRAS, the amyloid nucleation score was determined as 0.998 ± 0.74.

For the substance MPHPLLLSFEENLIDCLYDH, the amyloid nucleation score was -0.693 ± 0.64.

Take MPYALIR: the amyloid nucleation score was -0.821 ± 0.35.

Regarding MQMLIYGWSMCFILGAQV, the amyloid nucleation score worked out at 0.479 ± 0.74.

As for MQNANLIQTFEGYIYPMDIQ, the amyloid nucleation score came to 0.433 ± 0.74.

Consider MRCDTVMKSSYASVASMGL, for which the amyloid nucleation score entry is “inactive”.

With MRDRMVAAARLFRGVSRLAF, the amyloid nucleation score was -0.268 ± 0.48.

With MRFPGSGGRCLMTFLRLEWV, the amyloid nucleation score was determined as 0.329 ± 0.28.

As to MRLEWNRGLLCDDSYARTAR, the amyloid nucleation score amounted to 0.83 ± 0.41.

Consider MRLHSLGRCGQWSCDVGRER, for which the amyloid nucleation score turned out to be 0.918 ± 0.35.

In turn, MRQWEQNSCYDLPAYLWNVG had an amyloid nucleation score of -0.079 ± 0.56.

For MRSNWYGNVCVVTSNCDGLG, the amyloid nucleation score is 0.837 ± 0.48.

For MRSYIQFVFCGDCRFFNWVI, the amyloid nucleation score worked out at 6.298 ± 0.05.

The substance MRWLYFPLF yielded an amyloid nucleation score of -0.801 ± 0.56.

Substance MSAYR returned an amyloid nucleation score of -0.018 ± 0.65.

MSCSSIRLFQDSIRLCRTSR came in with an amyloid nucleation score of -0.02 ± 0.32.

As to MSGFTFKTLGGISHYDFQLD, the amyloid nucleation score result is “inactive”.

Substance MSGYVVFDMALKTRELMPAS displayed an amyloid nucleation score of 1.87 ± 0.48.

As to MSLLYGS, the amyloid nucleation score was determined as 0.523 ± 0.64.

For the substance MSLPRSPAWGV, the amyloid nucleation score was 0.863 ± 0.27.

With MSMLPCGSVYFNTRNAYLWL, the amyloid nucleation score was 6.678 ± 0.065.

For MSRSSPMIHFETCWHASAGF, the amyloid nucleation score came out at 3.82 ± 0.044.

Substance MSSHSTCRGVGINGLMVFVL showed an amyloid nucleation score of 8.073 ± 0.057.

MSTLRRLRSRNRRFVNFVWG came in with an amyloid nucleation score of -0.019 ± 0.33.

On to MTCRMCGADCPLA, for which the amyloid nucleation score worked out at 0.539 ± 0.66.

The substance MTTALDGSLYVWCQCAVDVI displayed an amyloid nucleation score of 0.379 ± 0.54.

As for MTVASCSTGCHD, the amyloid nucleation score was 0.084 ± 0.54.

MVGNSNAPARVLCTVSKFGV had an amyloid nucleation score of 0.587 ± 0.33.

Turning to MVLDIFAS, the amyloid nucleation score worked out at 1.19 ± 0.44.

MVLYKSRNRLSNYHRLAEST displayed an amyloid nucleation score of -0.326 ± 1.1.

In the case of MVNYDDMANGS, the amyloid nucleation score was 0.465 ± 0.8.

MVPCWRFQSMC gave an amyloid nucleation score of 0.961 ± 0.81.

Regarding MVSLIPEMHFNVMLEKVACA, the amyloid nucleation score is 0.562 ± 0.81.

Regarding MVSSIGILASWYTSIVWFGY, the amyloid nucleation score was -0.191 ± 1.1.

The substance MVYNQCRSDL registered an amyloid nucleation score of -1.04 ± 0.23.

In turn, MWRAQFIYLRMQLVVACVGI had an amyloid nucleation score of 0.394 ± 0.33.

As for MYIGELIAPVCCLRSQFTPC, the amyloid nucleation score turned out to be 5.18 ± 0.075.

MYKGA came in with an amyloid nucleation score of 0.595 ± 0.62.

For MYKIF, the amyloid nucleation score result is “inactive”.

Substance MYLGH had an amyloid nucleation score of -0.864 ± 1.1.

Substance MYLLVV registered an amyloid nucleation score of 0.786 ± 0.41.

On to MYLVRIR, for which the amyloid nucleation score amounted to 0.316 ± 0.42.

In turn, MYNENRLLSSFNSVCCMLWG came in with an amyloid nucleation score of 9.787 ± 0.078.

In turn, MYNQC showed an amyloid nucleation score of 0.271 ± 0.44.

Regarding MYRCQSSVFIFGSYSPILCH, the amyloid nucleation score is -0.303 ± 0.63.

As to MYRIDD, the amyloid nucleation score was 6.83 ± 0.088.

As for MYRVEGL, the amyloid nucleation score result is “inactive”.

MYVRYANDFVLLIMQVYRCF had an amyloid nucleation score of -0.488 ± 1.

Substance MYYYSFSDTTLWEISPQLAT came in with an amyloid nucleation score of -0.582 ± 1.1.

In the case of NADGYSLMQRSNFSQSNGYL, the amyloid nucleation score entry is “inactive”.

For the substance NARFSFKTLRYGGVLRKYPL, the amyloid nucleation score was -0.363 ± 1.1.

The substance NARQSLADSSAVRPDARTLI came in with an amyloid nucleation score of 0.456 ± 0.45.

For NATLSSFYSLGNEMHSGHSV, the amyloid nucleation score is -0.209 ± 0.48.

Take NAVEIERNLLQIFQLLNSGE: the amyloid nucleation score was -0.739 ± 0.64.

The substance NCESQVVDMYITIRLFVLWV registered an amyloid nucleation score of 0.202 ± 0.18.

Regarding NCKYVVTMMLTSGLCAENIW, the amyloid nucleation score was -0.81 ± 1.

Turning to NCQYFMRGFSVISSTFGMLS, the amyloid nucleation score was -0.395 ± 0.76.

Substance NCRRMFGYNHCSHLCPLRVW gave an amyloid nucleation score of -0.653 ± 1.1.

NCWISIYNMFLLRRRMMGMG displayed an amyloid nucleation score of -0.611 ± 0.63.

NCWYTFTL registered an amyloid nucleation score of 1.45 ± 0.12.

As to NDGIFDSTRVVETMCLRSSP, the amyloid nucleation score is -0.129 ± 1.1.

In the case of NDGLSILVASNMCLSFAWAW, the amyloid nucleation score came out at 5.109 ± 0.04.

On to NDGVWKLFPLYLTPRSTFLL, for which the amyloid nucleation score is 0.895 ± 0.81.

NDHVVVAHTFYLCDRNVDEM yielded an amyloid nucleation score of 0.483 ± 0.4.

In turn, NDKFCATDESVRSRSI had an amyloid nucleation score of 0.042 ± 0.37.

As for NDLARSFRV, the amyloid nucleation score was -1.13 ± 1.1.

NDSFSFDSRCVVDRFGVAKK returned an amyloid nucleation score of -0.612 ± 0.76.

Regarding NDSNIRINNFFGNFTFGREL, the amyloid nucleation score is 7.485 ± 0.041.

Regarding NDVAKYACDKHSGNYGYSQG, the amyloid nucleation score worked out at 0.011 ± 1.1.

For the substance NEHCVNAGSRWMDGCVSCWY, the amyloid nucleation score was 3.58 ± 0.082.

Take NEHMIHIKSDLRYSAESKPY: the amyloid nucleation score came to 0.503 ± 0.18.

With NEIASEYSYRPLLRGWSS, the amyloid nucleation score is -0.119 ± 0.4.

Turning to NEMGFSHISGEMCAP, the amyloid nucleation score is -0.882 ± 0.24.

On to NENKGNF, for which the amyloid nucleation score was -0.947 ± 0.54.

NEQIW showed an amyloid nucleation score of 0.023 ± 0.39.

As to NERRT, the amyloid nucleation score was found to be 0.995 ± 0.53.

As for NEVTRAWSEFPYFMVSRHMT, the amyloid nucleation score is 0.813 ± 0.47.

The substance NFCLVNLEWMRWSNLTDGLQ had an amyloid nucleation score of 5.34 ± 0.055.

Substance NFEHVASLIFGLLILDSQSL came in with an amyloid nucleation score of -1.43 ± 0.49.

NFFSTISQVMRYILFHSKVD had an amyloid nucleation score of -1.54 ± 0.54.

Turning to NFIRDSMVTCRYEKDLGA, the amyloid nucleation score is 0.713 ± 0.8.

Substance NFKWVVAVMG came in with an amyloid nucleation score of 0.789 ± 0.2.

Take NFLLSL: the amyloid nucleation score was found to be 0.322 ± 0.47.

NFMNSP: the amyloid nucleation score is -0.33 ± 1.1.

As to NFRGGFWPVNMNTRLIWSGV, the amyloid nucleation score was -1.52 ± 0.62.

For NFRRLVMGSRNYSLFCGDKE, the amyloid nucleation score entry was “inactive”.

As to NFRSVFFAMCRSCVF, the amyloid nucleation score was -0.145 ± 0.25.

NFSYASNTEHRPVSNIFWEL showed an amyloid nucleation score of -1.33 ± 0.62.

NFSYNRCVR gave an amyloid nucleation score of 0.383 ± 0.49.

Substance NFWYCYTLSDNNYFF came in with an amyloid nucleation score of 7.41 ± 0.038.

NFYMSKVVSFKNGCM showed an amyloid nucleation score of 3.3 ± 0.057.

In turn, NFYSYIWLLL displayed an amyloid nucleation score of 6.38 ± 0.064.

Substance NFYVVDQCSYRSGRLNIKWL gave an amyloid nucleation score of 4.13 ± 0.079.

With NGCQV, the amyloid nucleation score is 0.545 ± 0.6.

As to NGCYQGYKCVLRQLAFKSSG, the amyloid nucleation score is -0.17 ± 0.5.

Consider NGDSGG, for which the amyloid nucleation score is 1.02 ± 0.16.

In turn, NGHFCWPFFMARHMELREE showed an amyloid nucleation score of -0.013 ± 0.56.

NGIKFRGMVVTP yielded an amyloid nucleation score of 0.294 ± 0.65.

NGILRRCMSKLSRAWPDGLE: the amyloid nucleation score turned out to be 10.71 ± 0.046.

For the substance NGKNILD, the amyloid nucleation score result is “inactive”.

In turn, NGMRIGTDLGFYSRGMLRTQ came in with an amyloid nucleation score of 0.162 ± 0.26.

With NGSRSSMSGARERYCYIRVS, the amyloid nucleation score result was “inactive”.

On to NHESYWSKSSWFWLFNGVSQ, for which the amyloid nucleation score entry was “inactive”.

As to NHRQDKLQNHVSGLPSIGSL, the amyloid nucleation score came to 0.059 ± 0.36.

On to NHSVYVYMLMALTTWGVLSS, for which the amyloid nucleation score was -0.403 ± 0.79.

NHYSSVMKVFCDRFTSAIGG: the amyloid nucleation score was -0.946 ± 0.63.

Turning to NIARNFRYRM, the amyloid nucleation score is -1.86 ± 1.1.

Values taken from the supplement of paper PMC12042874.
